Source: article PMC10802472 (bioRxiv, 2024)

Biological target: the molecule itself
Assay: cryo-EM structure

B1: ACAD11 K* mutant (kinase-inactive mouse ACAD11) (enzyme, UniProt Q80XL6 1-779, looked up)
chain: METDVTSDTVEVLPQHKFDLRSLEAYLNQHLPGFGSDSRAVLTVTQYRSGQSNPTFFLQKGSQAYVLRKKPPGSLLPKAHKIDREFKIQKALFSIGFPVAKPLLYCRDASVIGTEFYVMEHVQGRIFRDFSIPGVSSAERAAIYVSVAETLAWLHSLDIRSLKLDKYGTGVGYCKRQVSTWTKQYQASAHQSIPAMDQLSTWLMKNLPDSDSEECLVHGAFKLDNIVFHPKECRVIAVLDWELSTFGHPLTDLAHLSLFYYWPRTLPMINRGSHIPENTGIPLMEELISIYCHRRGIDPNLPNWNFFMALSFFKLAGISQGVYRRYLMGNNSSEDSFLTANTVQPLAETGLQLSKRTLRTTPPQADAKSQLFAQSRRGQEVLTRVKQFMKQHVFPAEKEVAEYYAQSGNSAEKWGHPLVIEKLKEMAKAEGLWNLFLPAVSGLSQVDYALIAEETGKCFFAPDVFNCQAPDTGNMEVLHLYGSEQQKKQWLEPLLRGDITSVFCMTEPNVSSSDATNIECTIQRDGGGYIVNGKKWWSSGAGNPKCKIAIVLGRTESPSASRHRQHSMILVPMDTPGVELIRPLSVFGYMDNMHGGHWEVHFNHVRVPASNLILGEGRGFEISQGRLGPGRIHHCMRTVGLAERILQIMCDRAVQREAFKKKLYEHEVVAHWIAKSRIAIEEIRLLTLKAAHSIDTLGSASARKEIAMIKVAAPKAVCKIADWAIQVHGGAGVSQDYPLANMYAIIRTLRLADGPDEVHLSAIAKMELQDQARRLTARM
In the case of B1, the “stoichiometry N” value is reported as 4.

B2: ACAD11 A* mutant (ACAD-inactive mouse ACAD11) (enzyme, UniProt Q80XL6 1-779, looked up)
chain: METDVTSDTVEVLPQHKFDLRSLEAYLNQHLPGFGSDSRAVLTVTQYRSGQSNPTFFLQKGSQAYVLRKKPPGSLLPKAHKIDREFKIQKALFSIGFPVAKPLLYCRDASVIGTEFYVMEHVQGRIFRDFSIPGVSSAERAAIYVSVAETLAWLHSLDIRSLKLDKYGTGVGYCKRQVSTWTKQYQASAHQSIPAMDQLSTWLMKNLPDSDSEECLVHGDFKLDNIVFHPKECRVIAVLDWELSTFGHPLTDLAHLSLFYYWPRTLPMINRGSHIPENTGIPLMEELISIYCHRRGIDPNLPNWNFFMALSFFKLAGISQGVYRRYLMGNNSSEDSFLTANTVQPLAETGLQLSKRTLRTTPPQADAKSQLFAQSRRGQEVLTRVKQFMKQHVFPAEKEVAEYYAQSGNSAEKWGHPLVIEKLKEMAKAEGLWNLFLPAVSGLSQVDYALIAEETGKCFFAPDVFNCQAPDTGNMEVLHLYGSEQQKKQWLEPLLRGDITSVFCMTEPNVSSSDATNIECTIQRDGGGYIVNGKKWWSSGAGNPKCKIAIVLGRTESPSASRHRQHSMILVPMDTPGVELIRPLSVFGYMDNMHGGHWEVHFNHVRVPASNLILGEGRGFEISQGRLGPGRIHHCMRTVGLAERILQIMCDRAVQREAFKKKLYEHEVVAHWIAKSRIAIEEIRLLTLKAAHSIDTLGSASARKEIAMIKVAAPKAVCKIADWAIQVHGGAGVSQDYPLANMYAIIRTLRLANGPDEVHLSAIAKMELQDQARRLTARM
B2 was tested, and the “stoichiometry N” value was 4.
